Source: paper PMC5535893

Key:
[1] = target: mouse CD3εγ-chains (mouse (endogenous in C57BL/6 spleen T cells)) (UniProt P22646); test: flow cytometry on cells; fixed CD8+ T cells (1 x 10^6/mL) incubated with or without ArtinM (25 µg/mL) for 40 min at 4 °C, then with 145-2C11-PE or 17A2-FITC (10 µg/mL) for 40 min at 4 °C; percentage of cells labelled with anti-CD3 antibody
[2] = target: mouse CD3εγ-chains (mouse (endogenous in C57BL/6 spleen T cells)) (UniProt P22646)

Sequence of UniProt P22646 (P22646 22-189, chain 1 of 2): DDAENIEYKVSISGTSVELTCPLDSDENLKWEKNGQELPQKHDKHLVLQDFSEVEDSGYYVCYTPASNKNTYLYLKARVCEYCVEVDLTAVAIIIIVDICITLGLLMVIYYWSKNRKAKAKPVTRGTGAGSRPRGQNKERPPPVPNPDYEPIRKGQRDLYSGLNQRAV
Sequence of UniProt P22646 (P11942 23-182, chain 2 of 2, further chain): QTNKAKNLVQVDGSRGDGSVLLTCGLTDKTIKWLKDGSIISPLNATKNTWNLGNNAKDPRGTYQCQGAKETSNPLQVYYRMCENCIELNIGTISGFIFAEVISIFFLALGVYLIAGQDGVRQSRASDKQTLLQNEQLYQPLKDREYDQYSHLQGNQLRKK

fold decrease in the frequency of CD8+ T cells labelled by the anti-CD3εγ antibody 17A2 after pre-incubation with ArtinM [1]: 3.5 fold
inhibition of the ArtinM-induced (1.25 µg/mL, 48 h) IL-2 release by CD8+ T cells after treatment with the anti-CD3εγ-chains antibody 17A2 (8 µg/mL), against an IgG isotype control; ELISA [2]: 70%
Substance: ArtinM, D-mannose-binding lectin from Artocarpus heterophyllus (natural protein)
